# Measurements from patent US11879019B2, “Dual-enzyme responsive peptides” (THE REGENTS OF THE UNIVERSITY OF CALIFORNIA, priority 2016, dated 2024).
# Entries after “also recorded” stand apart in the source; their conditions may differ. Read-outs that look alike come from different tables or passages of the source. Square brackets hold non-standard residues; d marks the D form. Side chains are listed from the residue outwards. Peptide text beside a SMILES is read from it. * marks the point of attachment. ξ: configuration not given here. X2 = CN(CCN*)C(=S)Oc1ccc2c3c1O[C@H]1C(=O)CC[C@@]4(O)[C@@H](C2)N(CC2CC2)CC[C@]314; X1 = CN(CCN*)C(=O)Oc1ccc2c3c1OC1C(=O)CCC4(O)C(C2)N(CC2CC2)CCC314; X3 = CC(=O)N[C@@H](CCCCN*)C(=O)Nc1ccc([N+](=O)[O-])cc1; X4 = CN(CCN*)C(=O)Oc1ccc([N+](=O)[O-])cc1; Trt = c1ccc(C(c2ccccc2)(c2ccccc2)*)cc1; pNA = O=[N+]([O-])c1ccc(N*)cc1; ξF = NC(Cc1ccccc1)C(=O)O; Boc = CC(C)(C)OC(=O)*; ξK = NCCCCC(N)C(=O)O; ξC = NC(CS)C(=O)O; ξA = CC(N)C(=O)O
# Assays:
# trypsin and chymotrypsin [1] = test: Trypsin + chymotrypsin assay (pNA release, absorbance at 405 nm); type: biochemical; conditions: for absorbance increase at 405 nm (pNA release): trypsin + chymotrypsin
# Procedure: Stock solutions of enzymes were prepared by dissolving trypsin (60 mg/ml) in 1 mM HCl and chymotrypsin (60 mg/ml) in pH 7.4 0.035M HEPES+0.1M NaCl. The peptide substrate, (Ac-AAF)K-pNA, was dissolved in DMSO to make a 1 mM stock solution.
# (§1) To wells in a 96-well plate, 87.5 μL pH 7.4 0.035M HEPES+0.1M NaCl and 2.5 μL peptide substrate were added. Absorbance was measured using a plate reader at 405 nm. Then, 5 μL trypsin and 5 μL chymotrypsin were added to the wells, and absorbance was measured at pre-determined time points. Absorbance values were subtracted from initial reading of only buffer and peptide. When testing only one enzyme, 5 μL buffer were added to keep total volume per well at 100 μL. All conditions prepared and measured in triplicate.
# as §1, with “Stock solutions of enzymes were prepared by dissolving trypsin (60 mg/ml) in 1 mM HCl and chymotrypsin (60 mg/ml) in pH 7.4 0.035M HEPES+0.1M NaCl. The peptide substrate, (Ac-AAF)K-pNA, was dissolved in DMSO to make a 1 mM stock solution. To” for “To”, “were” for “prepared and”
# caspase 3 and trypsin = test: Caspase 3 + trypsin assay (pNA release, absorbance at 405 nm); type: biochemical
# Procedure: (§2) Caspase 3 was taken directly from stock solution containing 1000 U/μL. A stock solution of trypsin was prepared by dissolving the enzyme (5 mg/ml) in 1 mM HCl. The peptide substrates were dissolved in DMSO to make 10 mM solutions. These were then diluted to 2.5 mM with pH 7.5 0.1 M HEPES containing 10 mM DTT, 2 mM EDTA, and 10% v/v glycerol. In a 96-well plate, 84 μL of buffer and 5 μL peptide were mixed together before measuring the absorbance at 405 nm to serve as a blank. 1 μL caspase-3 was added, and the plate was incubated at 23° C. for 12-24 hours and absorbance was measured again. Then, 5 μL trypsin were added to the well and absorbance measurements were taken at pre-determined time points. All conditions prepared and measured in triplicate. The same protocol was used for caspase 8 assays, adjusting peptide substrate concentration as needed.
# caspase 8 and trypsin = test: Caspase 8 + trypsin assay (pNA release, absorbance at 405 nm); type: biochemical; conditions: for cleavage by caspase 8 (absorbance increase): caspase 8 only, commercial single enzyme substrates
# Procedure: as §2
# papain and trypsin = test: Papain + trypsin assay (pNA release, absorbance at 405 nm); type: biochemical
# Procedure: Papain was reconstituted in deionized water at a concentration of 1 mg/ml. A stock solution of trypsin was prepared by dissolving the enzyme (10 mg/ml) in 1 mM HCl. The peptide substrate, (AcFG)K-pNA was dissolved in DMSO to make a 5 mM solution. Separately, 3M NaCl and 20 mM EDTA+50 mM cysteine (pH 6.2) solutions were prepared with deionized water. In a 96-well plate, 5 μL substrate were mixed with 45 μL NaCl and 40 μL EDTA+cysteine solutions. Absorbance was measured at 405 nm to serve as a blank. Then, 5 μL of both enzyme solutions were added, and absorbance measurements were taken at pre-determined time points. All conditions were prepared and measured in quadruplicate.
# trypsin and chymotrypsin [2] = test: pNA release assay of CAAK(F)-diamino-pNA; type: biochemical; conditions: 2 mM, trypsin and/or chymotrypsin, 90 minutes, 37° C.
# Procedure: A stock solution of the CAAK(F)-diamino-pNA (SEQ ID NO: 4) was prepared in dimethyl sulfoxide (DMSO) to produce a 16.0 mg/mL solution. A 7.5 mg/mL stock solution of the trypsin was prepared in 50 mM NH4HCO3 buffer (pH=8.05). A 7.5 mg/mL stock solution of chymotrypsin was prepared in 50 mM NH4HCO3 buffer (pH=8.05).
# A 96 well plate was used for monitoring the solutions at 405 nm using a plate reader. 20 μL of the peptide was combined with 62.0/66.6 μL of no enzyme, trypsin only, chymotrypsin only, or with both enzymes respectively. All solutions were diluted to a total volume of 200 μL using 50 mM NH4HCO3 (pH=8.05). Blanks were prepared by combining the enzymes with DMSO/buffer and their absorbances were subtracted from the cleavage conditions. Additionally, the residual signal from the peptide in the presence of no enzymes was also used as a blank and subtracted out from enzymatic conditions.
# [3] = for stability of the linker: over the entire pH range
# Procedure: The stabilities of these linkages were assessed by HPLC by monitoring the relative amount of Naltrexone versus the intact peptide-Naltrexone conjugate.
# [4] = 500 μM, caspase 8 for 24 hours before adding trypsin
molecule,measurement,setting,value
CC(=O)N[C@@H](C)C(=O)N[C@@H](C)C(=O)N[C@@H](Cc1ccccc1)C(=O)NCCCC[C@H](NC(C)=O)C(=O)Nc1ccc([N+](=O)[O-])cc1 [(AcAAF)K-pNA],change in absorbance at 405 nm,"trypsin and chymotrypsin [1]; 100 μM peptide, chymotrypsin only",no change in absorbance
same,absorbance increase at 405 nm,"trypsin and chymotrypsin [1]; 100 μM peptide, trypsin only",0.016±0.002 AU
same,absorbance increase at 405 nm (pNA release),trypsin and chymotrypsin [1]; 100 μM substrate,0.070±0.002 AU
same,absorbance increase at 405 nm (pNA release),trypsin and chymotrypsin [1]; 200 μM substrate,0.147±0.002 AU
same,absorbance increase at 405 nm (pNA release),trypsin and chymotrypsin [1]; after five hours,0.039±0.003 AU
CC(=O)N[C@@H](CCCCNC(=O)[C@H](CC(=O)O)NC(=O)[C@@H](NC(=O)[C@H](CCC(=O)O)NC(=O)[C@H](CC(=O)O)NC(C)=O)C(C)C)C(=O)Nc1ccc([N+](=O)[O-])cc1 [(AcDEVD)K-pNA],absorbance increase at 405 nm,"caspase 3 and trypsin; 125 μM substrate, first caspase-3 then trypsin, over 60 minutes",0.1±0.006 AU
same,pNA release relative to release from commercial substrate AcDEVD-pNA,caspase 3 and trypsin; caspase 3 digestion,83%
same,absorbance increase,caspase 3 and trypsin; trypsin or caspase 3 only,no absorbance increase
same,absorbance increase,caspase 8 and trypsin; [4],did not result in a significant absorbance increase
CC(=O)N[C@@H](CCCCNC(=O)[C@H](CC(=O)O)NC(=O)[C@H](CCC(=O)O)NC(=O)[C@@H](NC(=O)[C@H](CC(=O)O)NC(C)=O)C(C)C)C(=O)Nc1ccc([N+](=O)[O-])cc1 [(AcDVED)K-pNA] (Ac-DVED-X3),pNA release,caspase 3 and trypsin; trypsin and caspase 3,no pNA release
CC(=O)N[C@@H](Cc1ccccc1)C(=O)NCC(=O)NCCCC[C@H](NC(C)=O)C(=O)Nc1ccc([N+](=O)[O-])cc1 [(AcFG)K-pNA],absorbance increase,papain and trypsin; each enzyme separately (papain only or trypsin only),no absorbance increase
same,pNA release,"papain and trypsin; papain and trypsin, varying substrate concentrations",substrate dependent
CC[C@H](C)[C@H](NC(C)=O)C(=O)N[C@@H](CCC(=O)O)C(=O)N1CCC[C@H]1C(=O)N[C@@H](CC(=O)O)C(=O)NCCCC[C@H](NC(C)=O)C(=O)Nc1ccc([N+](=O)[O-])cc1 [(AcIEPD)K-pNA] (Ac-IEPD-X3),absorbance increase,caspase 8 and trypsin; [4],did not result in a significant absorbance increase
same,absorbance increase,"caspase 8 and trypsin; caspase 8 and trypsin, initial experiments",little to no absorbance increase
CC(=O)NC(CS)C(=O)NC(C)C(=O)NC(C)C(=O)NC(CCCCNC(=O)C(N)Cc1ccccc1)C(=O)NCCN(C)C(=O)Oc1ccc([N+](=O)[O-])cc1 (stereo not shown) [CAAK(F)-diamino-pNA] (Ac-CAAK(Phe)-X4; configuration not given here),theoretical pNA released,trypsin and chymotrypsin [2],55%
CC(=O)NC(CSC(c1ccccc1)(c1ccccc1)c1ccccc1)C(=O)NC(C)C(=O)NC(C)C(=O)NC(CCCCNC(=O)C(Cc1ccccc1)NC(=O)OC(C)(C)C)C(=O)NCCN(C)C(=O)Oc1ccc2c3c1OC1C(=O)CCC4(O)C(C2)N(CC2CC2)CCC314 (stereo not shown) [NPC] (Ac-C(Trt)AAK([Phe-Boc])-X1; configuration not given here),"Percent Degradation, t = 0.5 hr",[3]; conjugate without pH buffer,0%
same,"Percent Degradation, t = 24 hr",[3]; conjugate without pH buffer,0%
same,stability of the linker,[3],very good stability
same,"Percent Degradation, t = 0.5 hr",[3]; pH 2,6.00%
same,"Percent Degradation, t = 24 hr",[3]; pH 2,12.30%
same,"Percent Degradation, t = 0.5 hr",[3]; pH 4,3.50%
same,"Percent Degradation, t = 24 hr",[3]; pH 4,2.89%
same,"Percent Degradation, t = 0.5 hr",[3]; pH 7,1.50%
same,"Percent Degradation, t = 24 hr",[3]; pH 7,3.62%
same,"Percent Degradation, t = 0.5 hr",[3]; pH 9,5.56%
same,"Percent Degradation, t = 24 hr",[3]; pH 9,5.17%
same,"Percent Degradation, t = 0.5 hr",[3]; pH 12,7.03%
same,"Percent Degradation, t = 24 hr",[3]; pH 12,6.94%
CC(=O)NC(CS)C(=O)NC(C)C(=O)NC(C)C(=O)NC(CCCCNC(=O)C(N)Cc1ccccc1)C(=O)NCCN(C)C(=S)Oc1ccc2c3c1O[C@H]1C(=O)CC[C@@]4(O)[C@@H](C2)N(CC2CC2)CC[C@]314 (stereo partly shown) [NPT] (Ac-[ξC][ξA][ξA][ξK](ξF)-X2),"Percent Degradation, t = 0.5 hr",[3]; conjugate without pH buffer,0.51%
same,"Percent Degradation, t = 24 hr",[3]; conjugate without pH buffer,2.90%
same,stability of the linker,[3],more stable than the carbamate linker
same,"Percent Degradation, t = 0.5 hr",[3]; pH 2,3.23%
same,"Percent Degradation, t = 24 hr",[3]; pH 2,4.10%
same,"Percent Degradation, t = 0.5 hr",[3]; pH 4,1.67%
same,"Percent Degradation, t = 24 hr",[3]; pH 4,2.04%
same,"Percent Degradation, t = 0.5 hr",[3]; pH 7,3.22%
same,"Percent Degradation, t = 24 hr",[3]; pH 7,3.59%
same,"Percent Degradation, t = 0.5 hr",[3]; pH 9,4.69%
same,"Percent Degradation, t = 24 hr",[3]; pH 9,3.37%
same,"Percent Degradation, t = 0.5 hr",[3]; pH 12,5.15%
same,"Percent Degradation, t = 24 hr",[3]; pH 12,6.72%
AcDEVD-pNA: commercially available single enzyme caspase substrate (SEQ ID NO: 7),cleavage by caspase 8 (absorbance increase),caspase 8 and trypsin,cleaved as expected; also recorded: significant absorbance increase over time
AcIEPD-pNA: commercially available single enzyme caspase substrate (SEQ ID NO: 8) (Ac-IEPD-pNA; SMILES CC[C@H](C)[C@H](NC(C)=O)C(=O)N[C@@H](CCC(=O)O)C(=O)N1CCC[C@H]1C(=O)N[C@@H](CC(=O)O)C(=O)Nc1ccc([N+](=O)[O-])cc1),cleavage by caspase 8 (absorbance increase),caspase 8 and trypsin,cleaved as expected; also recorded: significant absorbance increase over time
